Like-named read-outs stand apart in the source and are kept apart here.
T1: RadD (Escherichia coli, UniProt P33919 1-586)
T1 sequence: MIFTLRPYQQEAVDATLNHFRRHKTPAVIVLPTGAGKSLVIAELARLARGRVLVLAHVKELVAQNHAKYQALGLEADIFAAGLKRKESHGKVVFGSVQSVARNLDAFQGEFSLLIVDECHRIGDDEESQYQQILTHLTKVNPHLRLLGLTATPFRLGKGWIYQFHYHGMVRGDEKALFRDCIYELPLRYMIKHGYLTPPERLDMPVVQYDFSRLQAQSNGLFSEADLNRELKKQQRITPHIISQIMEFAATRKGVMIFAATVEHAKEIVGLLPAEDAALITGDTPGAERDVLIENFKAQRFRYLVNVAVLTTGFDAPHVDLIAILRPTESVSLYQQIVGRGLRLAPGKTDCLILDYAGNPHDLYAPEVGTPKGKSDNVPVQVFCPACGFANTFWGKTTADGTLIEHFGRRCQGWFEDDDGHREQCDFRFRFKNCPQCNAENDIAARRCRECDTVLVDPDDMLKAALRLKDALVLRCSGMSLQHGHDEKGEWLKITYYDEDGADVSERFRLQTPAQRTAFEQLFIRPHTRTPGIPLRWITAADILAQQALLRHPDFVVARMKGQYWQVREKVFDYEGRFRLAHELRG

B1: three-way junction (OH1/OH4/3W) (structured_DNA)
DNA 1: CCCGTGATCACCAATGCAGATTGACGAACCTTTGCCCACGT
DNA 2: GGCAGTAGGCCTAGCATGACAATCTGCATTGGTGATCACGG
DNA 3: GACGTGGGCAAAGGTTCGTCGTCATGCTAGGCCTACTGC
B2: Holliday junction (OH1-OH4) (structured_DNA)
DNA 1: CCCGTGATCACCAATGCAGATTGACGAACCTTTGCCCACGT
DNA 2: GACGTGGGCAAAGGTTCGTCAATGGACTGACAGCTGCATGG
DNA 3: GCCATCCAGCTGTCAGTCCATTGTCATGCTAGGCCTACTGC
DNA 4: GGCAGTAGGCCTAGCATGACAATCTGCATTGGTGATCACGG
B3: linear duplex (ZJRds1/ZJRds2) (dsDNA)
DNA 1: GCAATTAAGCTCTAAGCCATCCGCAAAAATGACCTCTTATCAAAAGGA
DNA 2: TCCTTTTGATAAGAGGTCATTTTTGCGGATGGCTAAGAGCTTAATTGC

Assays:
RadD [1] = target: T1, RadD; test: fluorescence anisotropy
RadD [2] = target: T1, RadD; test: fluorescence anisotropy; remark: listed apart in the source
Uup [3] = target: T2, Uup (Escherichia coli, UniProt P43672 1-635); test: EMSA
Uup [4] = target: T2, Uup; test: EMSA; remark: listed apart in the source

T2 sequence (P43672 whole entry): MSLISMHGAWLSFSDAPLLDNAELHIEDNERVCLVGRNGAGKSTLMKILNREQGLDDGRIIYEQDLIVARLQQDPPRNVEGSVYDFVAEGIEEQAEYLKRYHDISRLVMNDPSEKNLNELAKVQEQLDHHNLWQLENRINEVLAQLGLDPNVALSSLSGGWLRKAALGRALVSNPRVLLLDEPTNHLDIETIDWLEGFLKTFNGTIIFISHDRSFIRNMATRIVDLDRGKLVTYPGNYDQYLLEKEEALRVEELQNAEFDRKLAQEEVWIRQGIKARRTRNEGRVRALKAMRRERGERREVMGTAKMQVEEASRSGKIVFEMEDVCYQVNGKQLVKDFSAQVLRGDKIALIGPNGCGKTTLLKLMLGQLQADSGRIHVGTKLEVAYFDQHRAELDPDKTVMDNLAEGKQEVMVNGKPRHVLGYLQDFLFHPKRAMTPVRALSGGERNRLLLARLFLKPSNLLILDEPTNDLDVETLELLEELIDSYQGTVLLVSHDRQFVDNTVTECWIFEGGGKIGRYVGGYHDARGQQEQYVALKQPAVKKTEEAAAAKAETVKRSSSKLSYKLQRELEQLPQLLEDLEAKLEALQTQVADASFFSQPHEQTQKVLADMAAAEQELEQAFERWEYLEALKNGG

| Binder | binding result (RadD [1]) | binding result (RadD [2]) | binding result (Uup [3]) | binding result (Uup [4]) |
| --- | --- | --- | --- | --- |
| B1 | binds | – | – | – |
| B2 | – | no binding | binds | – |
| B3 | – | no binding | – | no binding |

From paper PMC7145654
